Measurements published in patent US20240252614A1 (Pfizer, published 2024).

How the values were obtained:
hMPV144 [1] = molecular target: T1, hMPV144 (hMPV B, UniProt Q6WB98 19-102); experiment: BLI, no stress
T1 construct: T49I, L141C-A161C, S149T, A459P

hMPV137 = molecular target: T2, hMPV137 (hMPV B, UniProt Q6WB98 19-102); experiment: BLI, no stress
T2 construct: T49I, A140C-S149C

hMPV122 [2] = molecular target: T3, hMPV122 (hMPV B, UniProt Q6WB98 19-102); experiment: BLI, no stress
T3 construct: A140C-S149C, T411C-Q434C, A459P

hMPV139 [3] = molecular target: T4, hMPV139 (hMPV B, UniProt Q6WB98 19-102); experiment: BLI, no stress
T4 construct: T49I, L141C-A161C, T411C-Q434C

hMPV140 = molecular target: T5, hMPV140 (hMPV B, UniProt Q6WB98 19-102); experiment: BLI, no stress
T5 construct: T49I, L141C-A161C, T411C-Q434C, A459P

hMPV132 = molecular target: T6, hMPV132 (hMPV B, UniProt Q6WB98 19-102); experiment: BLI, no stress
T6 construct: L141C-A161C, S149T, G239A, T411C-Q434C, A459P

hMPV125 = molecular target: T7, hMPV125 (hMPV B, UniProt Q6WB98 19-102); experiment: BLI, no stress
T7 construct: L141C-A161C, G239A, T411C-Q434C

hMPV B F WT Control [4] = molecular target: T8, hMPV B F WT Control (hMPV B, UniProt Q6WB98 19-102); experiment: BLI, no stress
hMPV123 [5] = molecular target: T9, hMPV123 (hMPV B, UniProt Q6WB98 19-102); experiment: BLI, no stress
T9 construct: A140C-S149C, G239A, T411C-Q434C

hMPV128 = molecular target: T10, hMPV128 (hMPV B, UniProt Q6WB98 19-102); experiment: BLI, no stress
T10 construct: T49I, A140C-S149C, G239A, T411C-Q434C, A459P

hMPV119 = molecular target: T11, hMPV119 (hMPV B, UniProt Q6WB98 19-102); experiment: BLI, no stress
T11 construct: T49I, T150C-R156C, A459P

hMPV120 [6] = molecular target: T12, hMPV120 (hMPV B, UniProt Q6WB98 19-102); experiment: BLI, no stress
T12 construct: A140C-S149C, T411C-Q434C

hMPV131 [7] = molecular target: T13, hMPV131 (hMPV B, UniProt Q6WB98 19-102); experiment: BLI, no stress
T13 construct: T49I, L141C-A161C, G239A, T411C-Q434C, A459P

hMPV130 = molecular target: T14, hMPV130 (hMPV B, UniProt Q6WB98 19-102); experiment: BLI, no stress
T14 construct: L141C-A161C, G239A, T411C-Q434C, A459P

hMPV142 = molecular target: T15, hMPV142 (hMPV B, UniProt Q6WB98 19-102); experiment: BLI, no stress
T15 construct: L141C-A161C, S149T, A459P

hMPV134 = molecular target: T16, hMPV134 (hMPV B, UniProt Q6WB98 19-102); experiment: BLI, 63C stress
T16 construct: T49I, L141C-A161C, S149T, G239A, T365I, T411C-Q434C, A459P
Description: (§1) Conformation integrity of hMPV B F protein mutants were evaluated by a thermal stress experiment. Crude cell culture supernatants were normalized based on the results of the titer quantitation and then incubated for 1 hour at room temperature and two higher temperatures. For the testing of hMPV B single mutants, the two temperatures were 53° C. and 56° C. After the incubation, the protein mutants were probed with prefusion specific monoclonal antibody hMPV-2 by OCTET HTX. Anti-Human IgG Fc Capture (AHC) biosensors were first equilibrated in PB before being dipped into more PB for to establish the initial baseline. Biosensors were incubated with hMPV-2 before being equilibrated in PB to establish the experimental baseline. The mAb-bound biosensors were then dipped into the thermal stresses cell culture supernatants for 5 minutes.

hMPV144 [8] = molecular target: T1, hMPV144; experiment: BLI, 63C stress
Description: as §1

hMPV122 [9] = molecular target: T3, hMPV122; experiment: BLI, 63C stress
Description: as §1

hMPV139 [10] = molecular target: T4, hMPV139; experiment: BLI, 63C stress
Description: as §1

hMPV B F WT Control [11] = molecular target: T8, hMPV B F WT Control; experiment: BLI, 63C stress
Description: as §1

hMPV123 [12] = molecular target: T9, hMPV123; experiment: BLI, 63C stress
Description: as §1

hMPV138 = molecular target: T17, hMPV138 (hMPV B, UniProt Q6WB98 19-102); experiment: BLI, 63C stress
T17 construct: T49I, A140C-S149C, A459P
Description: as §1

hMPV129 = molecular target: T18, hMPV129 (hMPV B, UniProt Q6WB98 19-102); experiment: BLI, 63C stress
T18 construct: T49I, A140C-S149C, G239A, T365I, T411C-Q434C, A459P
Description: as §1

hMPV117 = molecular target: T19, hMPV117 (hMPV B, UniProt Q6WB98 19-102); experiment: BLI, 63C stress
T19 construct: T150C-R156C, A459P
Description: as §1

hMPV120 [13] = molecular target: T12, hMPV120; experiment: BLI, 63C stress
Description: as §1

hMPV131 [14] = molecular target: T13, hMPV131; experiment: BLI, 63C stress
Description: as §1

hMPV126 = molecular target: T20, hMPV126 (hMPV B, UniProt Q6WB98 19-102); experiment: BLI, 63C stress
T20 construct: T49I, T150C-R156C, G239A, A459P
Description: as §1

hMPV133 = molecular target: T21, hMPV133 (hMPV B, UniProt Q6WB98 19-102); experiment: BLI, 63C stress
T21 construct: T49I, L141C-A161C, S149T, G239A, T411C-Q434C, A459P
Description: as §1

hMPV135 = molecular target: T22, hMPV135 (hMPV B, UniProt Q6WB98 19-102); experiment: BLI, 63C stress
T22 construct: T49I, S149T, A459P
Description: as §1

[15] = molecular target: F protein of hMPV A virus (human metapneumovirus A); experiment: cell-based or functional assay
[16] = molecular target: F protein of hMPV B virus (human metapneumovirus B); experiment: cell-based or functional assay
F protein of hPIV1 virus = F protein of hPIV1 virus (human parainfluenza virus 1); experiment: cell-based or functional assay

B1: hMPV-2 mAb (antibody, V domains shown)
VH: QVQLQQSGAEVKKPGASVKVSCKASGYTFTSYGISWVRQAPGQGLEWMGWISGYNGNTNYAQTFQGTFTMTTDTSTSTAYMELRRLRSGDTAVYYCARDRYYASGSYNGMDVWGQGTTVTVSS
VL: QSALTQPPSASGAPGQRVTVSCSGSSSNVGSSSVYWYQQLPGTAPKLLIYRNNQRPSGVPDRFSGSKSGTSASLAISGLRSEDEADYYCAAWDDSLSGWVFGGGTKLTVLG
notes: human IgG1
Response Shift (hMPV144 [1]): 0.712 nm | Response Shift (hMPV137): 0.663 nm | Response Shift (hMPV122 [2]): 0.73 nm | Response Shift (hMPV139 [3]): 0.699 nm | Response Shift (hMPV140): 0.731 nm | Response Shift (hMPV132): 0.704 nm | Response Shift (hMPV125): 0.847 nm | Response Shift (hMPV B F WT Control [4]): 0.82 nm | Response Shift (hMPV123 [5]): 0.619 nm | Response Shift (hMPV128): 0.777 nm | Response Shift (hMPV119): 0.864 nm | Response Shift (hMPV120 [6]): 0.593 nm | Response Shift (hMPV131 [7]): 0.727 nm | Response Shift (hMPV130): 0.71 nm | Response Shift (hMPV142): 0.731 nm | Response Shift (hMPV134): 0.733 nm | Response Shift (hMPV144 [8]): -0.015 nm | Response Shift (hMPV122 [9]): 0.665 nm | Response Shift (hMPV139 [10]): 0.456 nm | Response Shift (hMPV B F WT Control [11]): 0.017 nm | Response Shift (hMPV123 [12]): 0.549 nm | Response Shift (hMPV138): 0.156 nm | Response Shift (hMPV129): 0.661 nm | Response Shift (hMPV117): 0 nm | Response Shift (hMPV120 [13]): 0.502 nm | Response Shift (hMPV131 [14]): 0.679 nm | Response Shift (hMPV126): -0.075 nm | Response Shift (hMPV133): 0.62 nm | Response Shift (hMPV135): -0.015 nm | IC50, virus neutralization assay [15]: 20 µg/mL | IC50, virus neutralization assay [16]: 23.2 µg/mL

B2: PIV1-8 mAb (antibody, V domains shown)
VH: QVQLVQSGAEVKKPGSSVKVSCEASGGTFSNYVISWVRQAPGQGLEWMGGIIPVFATAKYAQKFQGRVTIIADQSTNTAYLELSSLRSDDTAVYFCASVDSGGTWWDAFAIWGQGTMVTVSS
VL: QAVVTQPRSVSGSPGQAVTISCTGTSSDVGGYNYVSWYQHHPGKAPKLIIYDVTKRPSGVPDRFSGSKSGNTASLTISGLQTEYEADYYCCSYAGSYTLVFGGGTKLTVLG
notes: human IgG1; also called hPIV1-8 mAb; hPIV1-8
IC50, virus neutralization assay (F protein of hPIV1 virus): 0.005 µg/mL
